Reference: patent US20210147526A1 (PLIANT THERAPEUTICS, published 2021)

Assays:
[1] = target: T1, Human Integrin α7β1 (human, UniProt Q13683 34-1038; P05556 21-728, limits assumed); assay: kinetics with RU read-out, integrin captured at 0.25 µg/mL, antibody as analyte, 1:1 binding model
T1 construct: also called human α7β1 integrin

[2] = target: T2, Mouse Integrin α7β1 (mouse, UniProt Q61738 34-1032; P09055 21-728, limits assumed); assay: as above
T2 construct: also called murine α7β1 integrin

[3] = target: human α6β1 integrin (human, UniProt P23229 24-1011; P05556 21-728, limits assumed); assay: dose titration on integrins (FIG. 11B)
[4] = target: human α5β1 integrin (human, UniProt P08648 42-995; P05556 21-728, limits assumed); assay: dose titration on integrins (FIG. 11B)
[5] = target: T3, human integrin alpha-7 (ITGA7) co-transfected with integrin beta-1 precursor (ITGB1) on HEK-293T cells, wild … (human, UniProt P05556 21-798, limits assumed); assay: high-throughput flow cytometry on HEK-293T cells with ITGA7 + ITGB1 against vector alone, 0.5 µg/ml
T3 construct: whole, on cells; also called target protein; wild-type (WT) target protein
From the text: (§1) Conditions for binding and screening of monoclonal antibodies and Fabs using high-throughput flow cytometry were optimized using wild-type target protein cloned into a proprietary vector and expressed in HEK-293T cells. The target protein is human integrin alpha-7 (ITGA7; UniProt ID Q13683; SEQ ID NO: 24). The binding of the VL3VHK20TFT monoclonal antibody and the VL3VHK20TFT Fab to HEK-293T cells co-transfected (1:1) with integrin beta-1 precursor (ITGB1) and integrin subunit alpha 7 (ITGA7) or with vector alone (negative control) was evaluated by high-throughput flow cytometry. The antibodies 3C12, 6A11, A1-1a M20, and A1-1a M24 were used as positive controls for ITGA7 binding.
(§2) Each point in FIG. 15 and FIG. 16 represents the mean of four replicates. The optimal screening concentration for each antibody or Fab (outlined in a box) was determined based on the raw signal values and signal-to-background calculations.

[6] = target: cell surface integrin α7β1 (cells and species not stated); assay: cell-based or functional assay
[7] = target: T1, Human Integrin α7β1; assay: comparison of the KD values of Table 8
[8] = target: T2, Mouse Integrin α7β1; assay: comparison of the KD values of Table 8
[9] = target: T3, human integrin alpha-7 (ITGA7) …; assay: high-throughput flow cytometry on HEK-293T cells with ITGA7 + ITGB1 against vector alone, 2.0 µg/ml
From the text: as §1, §2

[10] = target: T4, ITGA7 mutant R958A on HEK-293T cells (human, UniProt P05556 21-798); assay: high-throughput flow cytometry on HEK-293T cells with the ITGA7 alanine mutant, high stringency, normalized to wild type
T4 construct: whole, on cells; Clone of the alanine-scan library of ITGA7
Method: (§3) In order to map the epitope of VL3VHK20TFT, an alanine-scan library of the target protein (ITGA7; SEQ ID NO: 24) was constructed. Shotgun mutagenesis epitope mapping was performed using the general procedure described in Davidson and Doranz, 2014, Immunology 143, 13-20. Briefly, a mutation library of the target protein was created by high-throughput, site-directed mutagenesis. Each residue was individually mutated to alanine, with alanine codons mutated to serine. The mutant library was arrayed in 384-well microplates and transiently transfected into HEK-293T cells. Following transfection, cells were incubated with the indicated antibodies (VL3VHK20TFT Fab or 6A11 monoclonal antibody (mAh)) at concentrations predetermined using an independent immunofluorescence titration curve on wild type protein. The antibodies were detected using an Alexa Fluor 488-conjugated secondary antibody, and mean cellular fluorescence was determined using Intellicyt® iQue flow cytometry platform. […] This counterscreen strategy facilitates the exclusion of mutants that are locally misfolded or that have an expression defect.
(§4) The binding of VL3VHK20TFT Fab and 6A11 mAh to each mutant clone in an alanine scanning library of ITGA7 mutants was determined, in duplicate, by high-throughput flow cytometry. For each point, background fluorescence was subtracted from the raw data, which were then normalized to antibody (Ab) reactivity with wild-type (WT) target protein. For each mutant clone, the mean binding value was plotted as a function of expression (represented by control reactivity). To identify preliminary primary critical clones (red circles), a threshold (dashed lines) of >70% WT binding to control Ab and <20% WT binding to test Abs was applied.

[11] = target: T5, ITGA7 mutant M976A on HEK-293T cells (human, UniProt P05556 21-798); assay: as above
T5 construct: whole, on cells; Clone of the alanine-scan library of ITGA7
Method: as §3, §4

[12] = target: T6, ITGA7 mutant W978A on HEK-293T cells (human, UniProt P05556 21-798); assay: as above
T6 construct: whole, on cells; Clone of the alanine-scan library of ITGA7
Method: as §3, §4

[13] = target: T7, ITGA7 mutant W979A on HEK-293T cells (human, UniProt P05556 21-798); assay: as above
T7 construct: whole, on cells; Clone of the alanine-scan library of ITGA7
Method: as §3, §4

T2 sequence (Q61738 other isoform, or with tags, fused parts or gaps limits assumed, chain 1 of 2): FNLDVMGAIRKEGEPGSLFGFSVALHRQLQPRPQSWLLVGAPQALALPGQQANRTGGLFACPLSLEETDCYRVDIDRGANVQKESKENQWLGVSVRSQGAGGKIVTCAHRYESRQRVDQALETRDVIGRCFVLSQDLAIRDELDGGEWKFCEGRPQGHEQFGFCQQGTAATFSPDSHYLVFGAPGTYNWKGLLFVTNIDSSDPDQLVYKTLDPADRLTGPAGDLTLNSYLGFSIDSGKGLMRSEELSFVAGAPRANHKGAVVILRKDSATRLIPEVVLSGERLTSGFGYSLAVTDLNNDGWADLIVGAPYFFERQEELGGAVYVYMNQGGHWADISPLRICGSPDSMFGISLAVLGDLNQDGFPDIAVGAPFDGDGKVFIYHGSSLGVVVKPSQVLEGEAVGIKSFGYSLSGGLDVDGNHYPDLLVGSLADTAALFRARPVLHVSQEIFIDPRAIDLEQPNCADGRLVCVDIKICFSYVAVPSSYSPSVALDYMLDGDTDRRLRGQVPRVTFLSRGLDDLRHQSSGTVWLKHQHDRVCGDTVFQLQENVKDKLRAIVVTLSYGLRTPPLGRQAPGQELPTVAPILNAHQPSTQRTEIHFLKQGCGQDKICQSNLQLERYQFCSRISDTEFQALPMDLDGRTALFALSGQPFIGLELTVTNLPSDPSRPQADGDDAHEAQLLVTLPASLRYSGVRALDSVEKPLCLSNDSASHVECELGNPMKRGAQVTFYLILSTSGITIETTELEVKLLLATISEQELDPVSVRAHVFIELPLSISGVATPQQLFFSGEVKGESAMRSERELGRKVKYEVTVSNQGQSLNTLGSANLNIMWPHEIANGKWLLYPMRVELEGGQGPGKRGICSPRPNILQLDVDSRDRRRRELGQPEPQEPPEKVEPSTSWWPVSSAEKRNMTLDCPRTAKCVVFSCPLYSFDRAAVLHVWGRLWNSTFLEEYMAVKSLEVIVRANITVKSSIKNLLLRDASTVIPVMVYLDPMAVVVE
T2 sequence (P09055 21-728 limits assumed, chain 2 of 2): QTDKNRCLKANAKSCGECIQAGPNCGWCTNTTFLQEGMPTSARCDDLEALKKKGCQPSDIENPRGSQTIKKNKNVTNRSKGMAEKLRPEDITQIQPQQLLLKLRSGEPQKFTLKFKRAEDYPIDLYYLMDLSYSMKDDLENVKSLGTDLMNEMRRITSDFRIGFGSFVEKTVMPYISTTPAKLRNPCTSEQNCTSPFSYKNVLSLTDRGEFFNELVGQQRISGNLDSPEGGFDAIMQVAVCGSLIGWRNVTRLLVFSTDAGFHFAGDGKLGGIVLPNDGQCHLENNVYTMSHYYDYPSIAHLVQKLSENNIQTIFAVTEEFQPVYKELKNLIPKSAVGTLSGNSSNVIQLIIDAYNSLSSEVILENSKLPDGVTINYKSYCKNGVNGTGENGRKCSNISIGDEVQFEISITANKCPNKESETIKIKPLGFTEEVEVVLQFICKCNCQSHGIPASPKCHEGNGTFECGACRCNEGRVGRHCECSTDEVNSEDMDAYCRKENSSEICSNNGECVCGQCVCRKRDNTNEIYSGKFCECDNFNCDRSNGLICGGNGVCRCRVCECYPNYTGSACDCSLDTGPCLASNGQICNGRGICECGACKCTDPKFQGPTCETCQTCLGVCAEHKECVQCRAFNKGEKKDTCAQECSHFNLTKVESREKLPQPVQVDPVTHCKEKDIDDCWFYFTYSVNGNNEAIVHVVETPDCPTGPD
T1 sequence (Q13683 other isoform, or with tags, fused parts or gaps limits assumed, chain 1 of 2): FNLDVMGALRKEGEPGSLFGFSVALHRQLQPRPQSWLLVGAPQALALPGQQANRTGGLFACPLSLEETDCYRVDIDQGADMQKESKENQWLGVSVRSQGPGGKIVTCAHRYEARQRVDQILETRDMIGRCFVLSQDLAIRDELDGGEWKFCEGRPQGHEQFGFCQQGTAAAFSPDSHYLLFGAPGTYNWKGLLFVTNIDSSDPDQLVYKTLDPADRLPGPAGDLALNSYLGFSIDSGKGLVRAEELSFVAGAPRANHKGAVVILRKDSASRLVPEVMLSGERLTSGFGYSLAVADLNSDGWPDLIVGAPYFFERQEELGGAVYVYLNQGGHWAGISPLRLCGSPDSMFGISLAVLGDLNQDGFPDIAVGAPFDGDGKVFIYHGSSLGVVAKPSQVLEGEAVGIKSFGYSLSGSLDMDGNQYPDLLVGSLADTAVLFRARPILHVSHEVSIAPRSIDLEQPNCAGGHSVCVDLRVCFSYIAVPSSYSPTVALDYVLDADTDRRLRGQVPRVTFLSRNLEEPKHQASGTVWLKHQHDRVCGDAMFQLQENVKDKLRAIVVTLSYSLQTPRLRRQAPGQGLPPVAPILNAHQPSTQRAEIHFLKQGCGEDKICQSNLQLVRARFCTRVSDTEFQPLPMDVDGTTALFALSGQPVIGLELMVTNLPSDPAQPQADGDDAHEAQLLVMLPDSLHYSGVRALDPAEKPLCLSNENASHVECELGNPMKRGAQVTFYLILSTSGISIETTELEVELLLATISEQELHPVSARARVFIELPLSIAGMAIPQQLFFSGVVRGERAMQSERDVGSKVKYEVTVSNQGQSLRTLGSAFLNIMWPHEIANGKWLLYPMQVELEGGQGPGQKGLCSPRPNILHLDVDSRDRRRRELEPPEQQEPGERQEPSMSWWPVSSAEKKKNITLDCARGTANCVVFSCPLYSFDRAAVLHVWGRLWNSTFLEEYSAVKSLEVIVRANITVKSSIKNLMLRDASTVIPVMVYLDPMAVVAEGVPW
T1 sequence (P05556 21-728 limits assumed, chain 2 of 2): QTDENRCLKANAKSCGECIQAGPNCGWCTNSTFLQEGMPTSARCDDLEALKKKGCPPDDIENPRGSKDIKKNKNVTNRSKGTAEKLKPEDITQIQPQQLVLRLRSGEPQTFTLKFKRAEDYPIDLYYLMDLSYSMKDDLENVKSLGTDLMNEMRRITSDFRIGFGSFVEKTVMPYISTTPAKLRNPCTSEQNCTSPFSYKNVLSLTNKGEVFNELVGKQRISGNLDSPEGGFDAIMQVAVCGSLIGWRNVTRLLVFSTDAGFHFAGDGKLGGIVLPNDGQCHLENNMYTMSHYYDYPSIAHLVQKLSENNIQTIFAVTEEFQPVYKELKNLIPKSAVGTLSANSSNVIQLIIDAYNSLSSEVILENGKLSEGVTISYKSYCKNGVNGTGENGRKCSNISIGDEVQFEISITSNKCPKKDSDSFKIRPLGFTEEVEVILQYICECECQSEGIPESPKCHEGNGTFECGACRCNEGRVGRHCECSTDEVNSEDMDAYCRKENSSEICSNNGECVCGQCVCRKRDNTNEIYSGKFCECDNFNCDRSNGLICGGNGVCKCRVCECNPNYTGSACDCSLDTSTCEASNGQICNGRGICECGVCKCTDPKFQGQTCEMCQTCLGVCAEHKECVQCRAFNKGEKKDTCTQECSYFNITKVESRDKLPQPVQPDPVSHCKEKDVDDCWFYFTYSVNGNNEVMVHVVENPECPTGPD
human α6β1 integrin, sequence (P23229 other isoform, or with tags, fused parts or gaps limits assumed, chain 1 of 2): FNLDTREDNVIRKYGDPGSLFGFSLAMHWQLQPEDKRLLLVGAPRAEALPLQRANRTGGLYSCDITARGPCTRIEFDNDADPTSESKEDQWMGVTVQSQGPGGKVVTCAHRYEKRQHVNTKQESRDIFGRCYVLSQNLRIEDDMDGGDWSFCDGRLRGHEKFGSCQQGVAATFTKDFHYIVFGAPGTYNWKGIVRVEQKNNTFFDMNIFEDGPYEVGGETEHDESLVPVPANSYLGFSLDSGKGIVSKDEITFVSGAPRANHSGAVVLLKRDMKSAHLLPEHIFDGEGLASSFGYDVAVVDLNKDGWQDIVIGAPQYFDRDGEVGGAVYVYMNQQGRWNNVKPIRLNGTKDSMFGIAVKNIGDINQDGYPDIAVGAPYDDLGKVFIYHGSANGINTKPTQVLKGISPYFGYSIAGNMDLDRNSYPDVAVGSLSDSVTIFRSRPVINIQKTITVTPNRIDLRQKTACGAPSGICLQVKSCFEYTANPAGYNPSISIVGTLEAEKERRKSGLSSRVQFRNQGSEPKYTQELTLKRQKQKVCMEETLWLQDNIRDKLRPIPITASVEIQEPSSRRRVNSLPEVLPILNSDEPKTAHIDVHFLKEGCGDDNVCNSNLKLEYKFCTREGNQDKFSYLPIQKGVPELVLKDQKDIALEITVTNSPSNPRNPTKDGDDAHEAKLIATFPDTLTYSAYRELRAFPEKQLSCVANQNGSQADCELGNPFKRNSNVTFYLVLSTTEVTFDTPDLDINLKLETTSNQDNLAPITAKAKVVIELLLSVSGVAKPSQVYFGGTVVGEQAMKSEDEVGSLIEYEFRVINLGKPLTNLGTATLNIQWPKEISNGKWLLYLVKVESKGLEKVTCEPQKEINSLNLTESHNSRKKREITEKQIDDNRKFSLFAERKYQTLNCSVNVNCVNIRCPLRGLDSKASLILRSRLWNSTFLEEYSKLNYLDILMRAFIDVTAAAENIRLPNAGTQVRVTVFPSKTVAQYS
human α6β1 integrin, sequence (P05556 21-728 limits assumed, chain 2 of 2): as the sequence (P05556 21-728 limits assumed, chain 2 of 2) above

Row | Binder | Kd [1] [nM] | koff [1] [s⁻¹] | kon [1] [M⁻¹ s⁻¹] | Kd [2] [nM] | koff [2] [s⁻¹] | kon [2] [M⁻¹ s⁻¹] | binding result [3] | binding result [4] | further results
1 | mouse α7β1 antibody VLVH (Chimera with human IgG4 Fc) (antibody, V domains shown, also called hIgG4-23; murine antibody (VLVH)) VH: QVQLQQPGAELVKPGASVKLSCKASGYNFTKYWINWVKQRPGQGLEWIGIIYPGSSTSNYNEKFKTKATLTVEISSTTAYMQLSSLTSDDSAVYYCVRGDDWGQGTTLTVSS VL: not shown | 1.96 | 0.000652 | 333000 | 21.8 | 0.00213 | 97600 |  |  | 
2 | antibody M36 (antibody, V domains shown, Mouse hybridoma monoclonal antibody; also called M36 agonist antibody) VH: QVQLQQPGAELVKPGASVKLSCKASGYNFTKYWINWVKQRPGQGLEWIGIIYPGSSTSNYNEKFKTKATLTVEISSTTAYMQLSSLTSDDSAVYYCVRGDDWGQGTTLTVSS VL: not shown |  |  |  |  |  |  | no binding | no binding | 
3 | VL3VHK20TFT Fab (Fab, V domains shown, Fab of VL3VHK20TFT; also called VL3VHK20TFT Fab HS; Test Fab) VH: QVQLVQSGAEVKKPGASVKVSCKASGYTFTKYWINWVRQAPGQGLEWMGIIYPGSSTSNYNEKFKTRVTMTVDTSTSTAYMELSSLRSEDTAVYYCVKNDNWGQGTLVTVSS VL: DIQMTQSPSSLSASVGDRVTITCRASESVDNYGISFMNWFQQKPGKAPKLLIYAASDLGSGVPSRFSGSGSGTDFTLTISSLQPEDFATYYCHQSKEVPYTFGQGTKLEIK |  |  |  |  |  |  |  |  | Signal:Background [9]: 12 ratio signal:background; Binding Reactivity (% WT) [10]: 27.8 % WT; Binding Reactivity (% WT) [11]: 29.5 % WT; Binding Reactivity (% WT) [12]: -0.3 % WT; Binding Reactivity (% WT) [13]: -0.7 % WT

Continued, in another order:

Row | Kd [1] [nM] | koff [1] [s⁻¹] | kon [1] [M⁻¹ s⁻¹] | Kd [2] [nM] | koff [2] [s⁻¹] | kon [2] [M⁻¹ s⁻¹] | binding result [3] | binding result [4] | Binder | further results
4 |  |  |  |  |  |  | no binding | no binding | antibody M38 (antibody, V domains shown, Mouse hybridoma monoclonal antibody) VH: QVQLQQPGAELVKPGASVKLSCKASGYNFTKYWINWVKQRPGQGLEWIGIIYPGSSTSNYNEKFKTKATLTVEISSTTAYMQLSSLTSDDSAVYYCVRGDDWGQGTTLTVSS VL: not shown | 
5 | 0.593 | 0.000153 | 258000 | 1.96 | 0.000469 | 239000 |  |  | VL3VHK20TFT monoclonal antibody (antibody, human IgG4 S228P, kappa, V domains shown, Humanized M36/M38; also called hIgG4-36; hIgG-36) VH: QVQLVQSGAEVKKPGASVKVSCKASGYTFTKYWINWVRQAPGQGLEWMGIIYPGSSTSNYNEKFKTRVTMTVDTSTSTAYMELSSLRSEDTAVYYCVKNDNWGQGTLVTVSS VL: DIQMTQSPSSLSASVGDRVTITCRASESVDNYGISFMNWFQQKPGKAPKLLIYAASDLGSGVPSRFSGSGSGTDFTLTISSLQPEDFATYYCHQSKEVPYTFGQGTKLEIKR | Signal:Background [5]: 18 ratio signal:background; cell index (integrin α7β1 mediated cell adhesion) of DMD myoblast cells on laminin 211 [6]: ~5 fold; fold lower KD than the chimera antibody VLVH [7]: ~3.33 fold; fold lower KD than the chimera antibody VLVH [8]: ~11.1 fold
